From paper PMC4154663, “Bipartite Recognition of DNA by TCF/Pangolin Is Remarkably Flexible and Contributes to Transcriptional Responsiveness and Tissue Specificity of Wingless Signaling” come the findings set out here.

This series concerns the target T1, TCF/Pangolin HMG + C-clamp fragment (UniProt P91943 273-400).
T1 sequence: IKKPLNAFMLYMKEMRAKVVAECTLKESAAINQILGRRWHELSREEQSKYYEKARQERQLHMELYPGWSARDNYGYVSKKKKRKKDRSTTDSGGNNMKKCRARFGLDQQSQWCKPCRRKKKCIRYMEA
In words: competition EMSA; labeled AK6 probe; 10 mM Tris-HCl pH 7.5, 50 mM KCl, 1 mM DTT, 50 mM MgCl2 (so in the source), 0.05% NP40, 3.5% glycerol, 50 ug/ml poly(dIdC); 6 pmol protein, 0-2.4 pmol competitor, 20. To be noted: protein: recombinant, tags: His (pET52b(+), XmaI/SacI), blunt.

B1: FF0 competitor (dsDNA)
DNA 1: TGGTACGATCCTTTGATCTTGCCGCCAGTCGTACAC
DNA 2: GTGTACGACTGGCGGCAAGATCAAAGGATCGTACCA
As to B1, the IC50 (in general, the concentration that gives 50% inhibition) stood at 9.4 nM.

B2: KK6 competitor (dsDNA)
DNA 1: TACGATCCTTTGATCTTTGCAGTTGGCGGCGTCGTA
DNA 2: TACGACGCCGCCAACTGCAAAGATCAAAGGATCGTA
Turning to B2, the IC50 is 99.7 nM.

B3: RW0 competitor (dsDNA)
DNA 1: TGGTACGATAAGATCAAAGGTGGCGGCGTCGTACAC
DNA 2: GTGTACGACGCCGCCACCTTTGATCTTATCGTACCA
For the molecule B3, the 50% inhibitory concentration (IC50) is 189 nM.

B4: AK6 competitor (dsDNA)
DNA 1: TACGATAAGATCAAAGGTGCAGTGCCGCCAGTCGTA
DNA 2: TACGACTGGCGGCACTGCACCTTTGATCTTATCGAC
On to B4, for which, for the setting “printed reverse strand is mismatched at its last 2 nt (atcgac vs atcgta)”, the IC50 was 5.1 nM.
